We go through three molecules from patent publication US20220041746A1 (Sanofi, published 2022).

Test [1] has as its target human CD28 (Cambridge Biologics LLC Cat 03-01-0303) (human, UniProt P10747 19-152). The test is described as follows: ELISA on coated hCD28 IgG4. The method, then:
The binding properties of the purified antibodies were analyzed either using ELISA or SPR methods. For ELISA, corresponding antigens for each binding site in the trispecific binding protein were used to coat a 96-well Immuno Plate (Nunc 439454, Thermo Fisher Scientific) overnight at 4° C. using 2 μg/ml each antigen m PBS(pH7.4). The coated plate was blocked using 5% skim milk 12% BSA in PBS for one hour at RT, followed by washing with PBS+[…] three times (Aqua Max 400, Molecular Devices). Serial dilution of antibodies (trispecific and control Abs) were prepared and added onto the ELISA plates (100 μl/well in duplicate), incubated at RT for one hour, followed by washing 5 times with PBS+0.25% Tween 20.
The reaction was terminated by adding 50 μl 1M H₂SO₄, and OD₄₅₀ was measured using SpectraMax M5 (Molecular Devices) and analyzed using SoltMax Pro6.3 software (Molecular Devices). The final data was transferred to GraphPad Prism software (GraphPad Software, CA. USA), and plotted as shown. EC50 was calculated using the same software.
For orientation: An ELISA detects its analyte on a solid surface through an enzyme-linked reagent.

Test [2] addresses T1, human CD38 expressed on the cell surface (human, UniProt P28907 1-300).
T1 construct: whole, on cells; also called hCD38-expressing cells; huCD38
The test is described as follows: flow cytometry, 'Apparent KD value against rec. cells by FACS (nM)'; single value of the mid/low row, equal to the EC50 of the CD3mid protein in FIG. 6C. The method, then: (§1) The recombinant cell line was described by J. Deckket et al. 2014 Clin. Cancer Res 20:4574-4583. […] Antibody binding was evaluated after centrifugation and resuspension of cells by adding 200 μl/well PBS 1% BSA and read using Guava® easyCyte™ 8HT Flow Cytometry System. Apparent KD and EC50 values were estimated using BIOST®T-BINDING and BIOST®T-SPEED software, respectively.

Test [3] has as its target human CD28 (SPR of Example 4) (human, UniProt P10747 19-152, limits assumed). The test is described as follows: SPR; KD rounded to an integer; first value of the pair, taken for CD3mid. A general note: Surface plasmon resonance follows binding to a sensor surface in real time, without labels.
The target in test [4] is T2, recombinant human CD38 (SPR of Example 4) (human, UniProt P28907 45-300, limits assumed). The description is as above.
The target in test [5] is T2, recombinant human CD38 (SPR of Example …). The experiment in a line: SPR (column 'KD value against rec. protein by SPR (nM)'); first value of the pair, taken for CD3mid.
Test [6] deals with T3, cynomolgus monkey CD38 expressed on the cell surface (cynomolgus monkey, UniProt Q5VAN0 1-301).
T3 construct: whole, on cells; also called cCD38-expressing cells
The experiment in a line: flow cytometry on PréB cCD38 cells. The method, then: as §1
Background: A flow cytometer gives signals particle by particle.

Test [7] has as its target T1, human CD38 expressed on the cell surface. The test is described as follows: flow cytometry on PréB hCD38 cells. The method, then:
as §1

For test [8] the target is unchanged. The test is described as follows: flow cytometry on preB::300.19 cells.
The target in test [9] is T3, cynomolgus monkey CD38 expressed on the …. The test is described as follows: flow cytometry on preB::300.19 cells.
In test [10] the target is T4, CD38 isoform A (SEQ ID NO:1) (human, UniProt P28907 45-300).
T4 construct: also called huCD38 isoform A
The experiment in a line: ELISA, plate coated with the CD38 isoform. The method, then: (§2) 96-well plates were coated with either isoform at 0.5 μg/well in PBS and 100 μL/well of antibodies were added to the plate. The plate was incubated at 37° C. for 1 h and washed five times with PBS containing 0.05% Tween-20 (PBS-T). […] Following incubation at 37° C. for 1 h in darkness, plates were washed with PBS-T five times. Antibody binding w as visualized by adding TMB-H2O2 buffer and read at a wavelength of 450 nm. EC50 values were estimated using BIOST@T-SPEED software.

Test [11] concerns the target T5, CD38 isoform E (SEQ ID NO:105) (human, UniProt P28907 45-195, limits assumed).
T5 construct: also called huCD38 isoform E
The experiment in a line: ELISA, plate coated with the CD38 isoform. The method, then:
as §2

Test [12] addresses T6, cCD38-his (SEQ ID NO: 4) (cynomolgus monkey, UniProt Q5VAN0 46-301).
T6 construct: His-tagged soluble protein; also called cyno CD38-histag; cynoCD38::Histag
The test is described as follows: ELISA (column ELISA EC50 nM, cyno).

Test [13] addresses T7, hCD38-his (SEQ ID NO: 2) (human, UniProt P28907 45-300).
T7 construct: His-tagged soluble protein derived from isoform A; also called human CD38-histag; hCD38::Histag
The experiment in a line: ELISA (column ELISA EC50 nM, hu).

The target of test [14] is T1, human CD38 expressed on the cell surface. The experiment in a line: flow cytometry on preB::300.19 cells, apparent KD. As for the experimental part:
(§3) The recombinant cell line was described by J. Deckket et al. 2014 Clin Cancer Res 20:4574-4583. […] Antibody binding was evaluated after centrifugation and resuspension of cells by adding 200 μL/well PBS 1% BSA and read using Guava® easvCyte™ 8HT Flow Cytometry System. Apparent KD and EC50 values were estimated using BIOST@T-BINDING and BIOST@T-SPEED software, respectively.

In test [15] the target is T3, cynomolgus monkey CD38 expressed on the …. The test is described as follows: flow cytometry on preB::300.19 cells, apparent KD. As for the experimental part:
as §3

In test [16] the target is T1, human CD38 expressed on the cell surface. The experiment in a line: flow cytometry (column FACS EC50 nM, hu). As for the experimental part:
as §3

The target in test [17] is T3, cynomolgus monkey CD38 expressed on the …. The experiment in a line: flow cytometry (column FACS EC50 nM, cyno). The method, then: as §3
Test [18] addresses T1, human CD38 expressed on the cell surface. The experiment in a line: flow cytometry (FACS) on 300.19 PreB hCD38 cells. As for the experimental part:
as §3

Test [19] has as its target T6, cCD38-his (SEQ ID NO: 4). The experiment in a line: SPR, mAb captured via anti-human Fc, soluble CD38-his injected. The method, then:
(§4) The binding properties of the anti-huCD38 mabs were evaluated using a BIAcore 2000 (BIAcore Inc., Uppsala, Ni). […] The surface was regenerated between injections using 30 μL of 50 mM NaOH-1 M NaCl. Individual sensorgrams wore analyzed using BIAsimulation software.

Test [20] concerns the target T7, hCD38-his (SEQ ID NO: 2). Described as above. As for the experimental part: as §4
Test [21] deals with T1, human CD38 expressed on the cell surface. The experiment in a line: flow cytometry on preB::300.19 cells, apparent KD. As for the experimental part: as §1
The source holds these as a separate data set.

Test [22] concerns the target T3, cynomolgus monkey CD38 expressed on the …. The experiment in a line: flow cytometry on preB::300.19 cells, apparent KD. The method, then: as §1
This is another data set of the same source.

For test [23], the target named is T7, hCD38-his (SEQ ID NO: 2). The experiment in a line: ELISA on hCD38::Histag.
Test [24] has as its target T6, cCD38-his (SEQ ID NO: 4). The test is described as follows: ELISA on cynoCD38::Histag [Cont.].
The target of test [25] is T3, cynomolgus monkey CD38 expressed on the …. The test is described as follows: flow cytometry (FACS) on 300.19 PreB cynoCD38 cells [Cont.]. The method, then:
as §3

Values joined by “and” are separate entries in the source; they are usually repeats but may differ in a detail not shown here. Equal values may be shown once. Read-outs that look alike come from different tables or passages of the source.

One may read the EC50 as the concentration needed to bring the measured effect to its halfway point. What is called koff is a measure of how fast the partners let go of each other.

B1: Control CD38xCD3 antibody (bispecific antibody)
benchmark heavy chain 1 (binds CD38): EVQLVESGGGLVQPGGSLRLSCAASGFTFSYSWMNWVRQAPGKGLEWVSEINPQSSTINYATSVKGRFTISRDNSKNTLYLQMNSLRAEDTAVYYCARYGNWFPYWGQGTLVTVSSASTKGPSVFPLAPSSKSTSGGTAALGCLVKDYFPEPVTVSWNSGALTSGVHTFPAVLQSSGLYSLSSVVTVPSSSLGTQTYICNVNHKPSDTKVDKKVEPKSCDKTHTCPPCPAPPVAGPSVFLFPPKPKDTLMISRTPEVTCVVVDVKHEDPEVKFNWYVDGVEVHNAKTKPREEEYNSTYRVVSVLTVLHQDWLNGKEYKCKVSNKALPAPIEKTISKAKGQPREPQVYTLPPSREEMTKNQVSLTCDVSGFYPSDIAVEWESDGQPENNYKTTPPVLDSDGSFFLYSKLTVDKSRWEQGDVFSCSVMHEALHNHYTQKSLSLSPGK
benchmark heavy chain 2 (binds CD3): not shown
benchmark light chain (binds CD38): DIVMTQSPSSLSASVGDRVTITCRASQNVDTWVAWYQQKPGQSPKALIYSASYRYSGVPDRFTGSGSGTDFTLTISSLQPEDFATYFCQQYDSYPLTFGGGTKLEIKRTVAAPSVFIFPPSDEQLKSGTASVVCLLNNFYPREAKVQWKVDNALQSGNSQESVTEQDSKDSTYSLSSTLTLSKADYEKHKVYACEVTHQGLSSPVTKSFNRGEC
notes: also called benchmark control CD38×CD3 bispecific antibody
For the molecule B1, in [1], the binding result is “no binding (tested: 10^4 pM)”.

B2: CD38VH1×CD28cvn×CD3mid IgG4 (other)
VH 1: QVQLVQSGAEVVKPGASVKVSCKASGYTFTSYAMHWVKEAPGQRLEWIGYIYPGQGGTNYNQKFQGRATLTADTSASTAYMELSSLRSEDTAVYFCARTGGLRRAYFTYWGQGTLVTVSS
VL 1: DIVLTQSPATLSLSPGERATISCRASQSVSSYGQGFMHWYQQKPGQPPRLLIYGASSRATGIPARFSGSGSGTDFTLTISPLEPEDFAVYYCQQNKEDPWTFGGGTKLEIK
VH 2: QVQLQESGPGLVKPSQTLSLTCTVSGFSLSDYGVHWVRQPPGKGLEWLGVIWAGGGTNYNPSLKSRKTISKDTSKNQVSLKLSSVTAADTAVYYCARDKGYSYYYSMDYWGQGTTVTVSS
VL 2: DIVLTQSPASLAVSPGQRATITCRASESVEYYVTSLMQWYQQKPGQPPKLLIFAASNVESGVPARFSGSGSGTDFTLTINPVEANDVANYYCQQSRKVPYTFGQGTKLEIK
VH 3: QVQLVESGGGVVQPGRSLRLSCAASGFTFTKAWMHWVRQAPGKQLEWVAQIKDKSNSYATYYADSVKGRFTISRDDSKNTLYLQMNSLRAEDTAVYYCRGVYYALSPFDYWGQGTLVTVSS
VL 3: DIVMTQTPLSLSVTPGQPASISCKSSQSLVHNNANTYLSWYLQKPGQSPQSLIYKVSNRFSGVPDRFSGSGSGTDFTLKISRVEAEDVGVYYCGQGTQYPFTFGSGTKVEIK
notes: also called CD38VH1×CD28evn×CD3mid; CD38VH1 × CD28cyn × CD3mid IgG4
With B2, the Kd in [2] worked out at 4400 pM; in [3], 18000 pM; in test [4], 4000 pM; in test [5], 4000 pM. The EC50 in [6] is 7.5 nM and 1.12 µg/mL; in test [7], 4.4 nM and 0.663 µg/mL. For the same molecule, the entries for the “fold lower apparent affinity than the parental mAb2 antibody” value in [8] and in test [9] were 9 fold and 7.5 fold, respectively.

B3: mAb2 (antibody, human IgG1, kappa, V domains shown)
VH: QVQLVQSGAEVVKPGASVKVSCKASGYTFTSYAMHWVKEAPGQRLEWIGYIYPGQGGTNYNQKFQGRATLTADTSASTAYMELSSLRSEDTAVYFCARTGGLRRAYFTYWGQGTLVTVSS
VL: DIVLTQSPATLSLSPGERATISCRASQSVSSYGQGFMHWYQQKPGQPPRLLIYGASSRATGIPARFSGSGSGTDFTLTISPLEPEDFAVYYCQQNKEDPWTFGGGTKLEIKR
notes: also called antiCD38_C2-CD38-1_VH1-VL1; CD38VH1
For B3, the EC50 worked out at 140 pM in [10]; 100 pM in test [11]; 100 pM with cCD38-his (SEQ ID NO: 4) [12]; 110 pM in the test with hCD38-his (SEQ ID NO: 2) [13]; 330 pM in test [16]; 760 pM in test [17]. Moreover, the EC50 in test [18] is 330 pM; in test [6], 1 nM and 0.147 µg/mL; in the test with hCD38-his (SEQ ID NO: 2) [23], 110 pM; in the test with cCD38-his (SEQ ID NO: 4) [24] it was 100 pM; in test [7], 0.5 nM and 0.0694 µg/mL; in test [25], 0.76 nM and 0.114 µg/mL. Besides, the Kd in [14] stood at 330 pM; in [15], 750 pM; with cCD38-his (SEQ ID NO: 4) [19], 3440 pM; with hCD38-his (SEQ ID NO: 2) [20], 332 pM; in test [21] it was 500 pM; in test [22], 1000 pM. The koff worked out at 0.000784 s⁻¹ in the test with cCD38-his (SEQ ID NO: 4) [19] and 0.00039 s⁻¹ with hCD38-his (SEQ ID NO: 2) [20].
